Earlier results as cited in publication PMC4900764.

Target: PEX5 (Saccharomyces cerevisiae) (UniProt P35056)
Assay: ITC

Chain of UniProt P35056 (P35056 whole entry): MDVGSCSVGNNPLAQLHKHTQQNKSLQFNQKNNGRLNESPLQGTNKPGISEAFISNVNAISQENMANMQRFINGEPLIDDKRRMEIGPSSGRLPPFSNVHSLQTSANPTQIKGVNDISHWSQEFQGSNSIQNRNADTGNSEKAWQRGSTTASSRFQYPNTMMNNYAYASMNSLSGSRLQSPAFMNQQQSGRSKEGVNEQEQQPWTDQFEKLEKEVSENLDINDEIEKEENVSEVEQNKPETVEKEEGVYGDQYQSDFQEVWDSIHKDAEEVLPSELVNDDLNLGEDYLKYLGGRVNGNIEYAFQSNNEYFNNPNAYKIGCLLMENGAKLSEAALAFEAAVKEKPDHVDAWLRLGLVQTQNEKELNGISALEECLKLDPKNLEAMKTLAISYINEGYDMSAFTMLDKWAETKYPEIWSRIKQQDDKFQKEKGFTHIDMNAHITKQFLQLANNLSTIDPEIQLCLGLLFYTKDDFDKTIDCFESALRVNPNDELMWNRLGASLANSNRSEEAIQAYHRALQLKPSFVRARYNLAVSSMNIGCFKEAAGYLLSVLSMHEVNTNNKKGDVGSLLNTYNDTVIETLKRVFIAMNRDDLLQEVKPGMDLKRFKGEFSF

Substance: PCS60 (from UniProt P38137)
- Kd: 190 nM
